Test results taken from publication PMC10482915, “Hornerin mediates phosphorylation of the polo-box domain in Plk1 by Chk1 to induce death in mitosis” (Cell Death and Differentiation, 2023).

Target: T1, His-Plk1 WT (human, UniProt P53350 1-603)
T1 construct: polo-like kinase 1 (Plk1), human; PCR product of the human Plk1 gene cloned into pET-28a; also called recombinant His-Plk1; His6-tagged Plk1 WT; source: E. coli BL21 DE3, purified (Ni2+-NTA-agarose)
Assay: pull-down; recombinant Chk1 incubated with recombinant His-Plk1, pulled down with Ni-beads; immunoblotting
Details: both partners purified

T1 sequence (P53350 whole entry): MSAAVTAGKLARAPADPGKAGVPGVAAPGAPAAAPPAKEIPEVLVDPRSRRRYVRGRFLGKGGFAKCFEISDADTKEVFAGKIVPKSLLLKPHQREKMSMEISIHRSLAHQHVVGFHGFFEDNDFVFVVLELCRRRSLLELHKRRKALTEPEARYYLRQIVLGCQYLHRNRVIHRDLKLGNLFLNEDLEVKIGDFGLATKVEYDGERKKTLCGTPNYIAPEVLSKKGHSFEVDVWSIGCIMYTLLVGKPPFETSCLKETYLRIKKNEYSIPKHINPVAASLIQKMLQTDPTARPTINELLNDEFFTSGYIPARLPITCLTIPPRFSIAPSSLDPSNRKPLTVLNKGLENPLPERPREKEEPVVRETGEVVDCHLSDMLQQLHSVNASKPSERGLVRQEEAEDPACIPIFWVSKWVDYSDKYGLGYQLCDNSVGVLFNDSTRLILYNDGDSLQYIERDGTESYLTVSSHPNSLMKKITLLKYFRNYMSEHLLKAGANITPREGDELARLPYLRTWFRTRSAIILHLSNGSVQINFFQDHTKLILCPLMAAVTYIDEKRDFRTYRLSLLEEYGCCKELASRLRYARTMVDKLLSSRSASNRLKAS

B1: recombinant Chk1 (enzyme, human, UniProt O14757 1-476, looked up)
chain: MAVPFVEDWDLVQTLGEGAYGEVQLAVNRVTEEAVAVKIVDMKRAVDCPENIKKEICINKMLNHENVVKFYGHRREGNIQYLFLEYCSGGELFDRIEPDIGMPEPDAQRFFHQLMAGVVYLHGIGITHRDIKPENLLLDERDNLKISDFGLATVFRYNNRERLLNKMCGTLPYVAPELLKRREFHAEPVDVWSCGIVLTAMLAGELPWDQPSDSCQEYSDWKEKKTYLNPWKKIDSAPLALLHKILVENPSARITIPDIKKDRWYNKPLKKGAKRPRVTSGGVSESPSGFSKHIQSNLDFSPVNSASSEENVKYSSSQPEPRTGLSLWDTSPSYIDKLVQGISFSQPTCPDHMLLNSQLLGTPGSSQNPWQRLVKRMTRFFTKLDADKSYQCLKETCEKLGYQWKKSCMNQVTISTTDRRNNKLIFKVNLLEMDDKILVDFRLSKGDGLEFKRHFLKIKGKLIDIVSSQKIWLPAT
notes: checkpoint kinase 1 (Chk1), human recombinant kinase; the SignalChem kinase is named only for the kinase assay; also called human recombinant Chk1 kinase; checkpoint kinase 1; source: bought: SignalChem (named for the kinase assay)
  binding result: binds
